Assay results as given in patent publication US20090123940A1, “MOLECULES INVOLVED IN SYNAPTOGENESIS AND USES THEREFOR” (THE JOHNS HOPKINS UNIVERSITY, priority 2007, published 2009).
Marks after values point to notes of the source that are not given here.

What was measured:
[1] = target: T1, HA GluR1 surface diffusion (Homo sapiens, UniProt P42261); assay: Single Quantum Dot Tracking of HA-tagged receptors on hippocampal neurons; assay type: cell-based, mouse
T1 construct: expressed in transfected cells; host or cells: dissociated mouse hippocampal neurons (P1-3 pups)
Protocol: (§1) Single Quantum Dot (QD) Tracking. Hippocampal neurons were prepared from postnatal days 1-3 mouse pups and cultured in Banker Style conditions to 6 D. I. V., 8 D. I. V., or 11 D. I. V. Cultured hippocampal neurons were transfected as above. 0.5 μL of QD 655 mouse IgG (QuantumDot Corporation) was incubated with 0.8 μg of HA antibody (Santa Cruz) in a 20 μL volume of PBS for 1 hour at room temperature. Neurons were incubated in a 1:500 dilution of this QD solution for 15 minutes at 37° C., 5% CO2. After brief washes with culture media, the neurons were mounted on a live imaging chamber with culture media/10 mM Hepes. Transfected neurons were identified based on GFP fluorescence. 100 millisecond exposure images were collected from neurons at a frequency of 2.67 Hz for 60 seconds with a coolsnap HQ (Photometrix). The graphical and numerical representation of the trajectory of each QD was extracted from each stack of images using the Motion Analysis Package of Metamorph (Universal Imaging Corporation). The numerical representation of the trajectory was used to calculate a diffusion coefficient using MSD software. Analysis was performed blinded.
(§2) Narp reduces surface diffusion of GluR1 but not GluR1ΔNAR1. GluR1ΔNAR1 was used to examine the hypothesis that Narp and NP1 function to limit the diffusion of receptors, and thereby recruit GluR1 to synapses. As part of a validation of GluR1ΔNAR1 for cell biological studies it was confirmed that it retained agonist-dependent channel activity. […] The mobility of HA GluR1 relative to HA GluR1ΔNAR1 on the surface of neuronal dendrites were compared using 5 nm fluorescent Quantum Dots (QDs) and Single Quantum Dot Tracking (SQDT). Dissociated hippocampal cultures (DIV 6) were transfected with HA GluR1-IRES2-GFP or HA-GluR1ΔNAR1-IRES2-GFP. […] QD-HA-GluR1 and QD-HA-GluR1ΔNAR1 were visualized by live, time-lapse fluorescence imaging. The trajectories of QD-coupled receptors were determined by the position of the QD in each frame, and the receptor diffusion coefficients were calculated from QD trajectories over multiple trials. […]

[2] = target: T2, HA GluR1 surface diffusion (Homo sapiens, UniProt P42261, A320G/C323G/D322G/DEL281-317/N319G); assay: as above; assay type: cell-based, mouse; conditions: 7 D. I. V., Narp transgene
T2 construct: expressed in transfected cells; host or cells: dissociated mouse hippocampal neurons (P1-3 pups)
Protocol: as §1, §2

[3] = test system: GluR1 on cultured spinal neurons; assay: Co-culture of myc-Narp expressing 293 cells with spinal neurons; assay type: cell-based
Protocol: The neurons and transfected HEK-293 cells were cocultured for 48 hours and then fixed and stained for myc-Narp, GluR1 and synapsin. When contacts between myc-Narp expressing 293 cells and GluR1 expressing spinal neurons were examined for overlapping myc-Narp/GluR1 clusters, 64% (82/128) of the myc-Narp clusters in contact with the neuron overlapped with neuronal GluR1 clusters (mean of 2.6+/−1.5 overlapping myc-Narp/GluR1 clusters per 293-neuron contact).

[4] = test system: GluR1 expressing 293 cells; assay: Co-culture of separately transfected 293 cells, intercellular clustering; assay type: cell-based
From the text: To evaluate whether Narp could mediate intercellular aggregation of GluR1, similar to that expected at a synapse, myc-tagged Narp and GluR1 were expressed separately in 293 cells and subsequently co-cultured together. Under these conditions, surface Narp clusters on one cell could induce large surface GluR1 aggregates on another. In a total of 109 contacts between a GluR1 expressing transfected cell and a Narp expressing cell, there was a mean of 1.2+/−0.75 large overlapping GluR1/myc-Narp clusters at these sites of contact. […] Moreover, the number of GluR1 clusters at sites of contact with non-Narp expressing 293 cells was extremely low [0.07 R1 clusters per contact with a GluR2 expressing cell (n=76); 0.03 R1 clusters per contact with a Pick1/GluR2 expressing cell (n=58)]. The interaction between GluR1 and Narp required contact between the heterologous cells, as there was no evidence that Narp could diffuse from one cell and induce GluR1 clusters on another.

cultured spinal neurons = assay: Narp overexpression in transfected cultured spinal neurons; assay type: cell-based
Protocol: In order to characterize the synaptic targeting of Narp in neurons, a C-terminal myc-tagged version of Narp (designated myc-Narp) was transfected into cultured spinal neurons (Dong et al., Nature 386:279-84, 1997). After 72 hours of expression, live staining with an anti-myc (mouse) antibody, followed by a FITC labeled anti-mouse secondary, was used to reveal the surface distribution of the transfected Narp. Subsequent staining of the same cells, after fixation and permeabilization, with an AMCA labeled anti-myc (rabbit) antibody was used to identify transfected neurons and their axons and dendrites, while GluR1 and GAD staining were used to identify excitatory and inhibitory synapses, respectively.
Given the presence of Narp on both pre and postsynaptic processes and the biochemical propensity of pentraxins to form head to head multimeric aggregates (Emsley et al., Nature 367, 338-45, 1994; Gewurz et al., Curr. Opin. Immunol. 7:54-64, 1995; Bottazzi et al., J. Biol. Chem. 272:32817-23, 1997), the possibility that Narp may function to facilitate the formation of excitatory synapses was explored. Thus, the number of synaptic GluR1 clusters (i.e., GluR1 clusters associated with synaptophysin staining) in transfected neurons over expressing myc-Narp was compared with the number of synaptic GluR1 clusters in untransfected neurons or in neurons transfected with a control plasmid containing the C-terminus of the NMDA receptor subunit NR1A (NR1CT).

[5] = transfected neurons, +/- S.D., 5 experiments

T1 sequence (P42261 19-906): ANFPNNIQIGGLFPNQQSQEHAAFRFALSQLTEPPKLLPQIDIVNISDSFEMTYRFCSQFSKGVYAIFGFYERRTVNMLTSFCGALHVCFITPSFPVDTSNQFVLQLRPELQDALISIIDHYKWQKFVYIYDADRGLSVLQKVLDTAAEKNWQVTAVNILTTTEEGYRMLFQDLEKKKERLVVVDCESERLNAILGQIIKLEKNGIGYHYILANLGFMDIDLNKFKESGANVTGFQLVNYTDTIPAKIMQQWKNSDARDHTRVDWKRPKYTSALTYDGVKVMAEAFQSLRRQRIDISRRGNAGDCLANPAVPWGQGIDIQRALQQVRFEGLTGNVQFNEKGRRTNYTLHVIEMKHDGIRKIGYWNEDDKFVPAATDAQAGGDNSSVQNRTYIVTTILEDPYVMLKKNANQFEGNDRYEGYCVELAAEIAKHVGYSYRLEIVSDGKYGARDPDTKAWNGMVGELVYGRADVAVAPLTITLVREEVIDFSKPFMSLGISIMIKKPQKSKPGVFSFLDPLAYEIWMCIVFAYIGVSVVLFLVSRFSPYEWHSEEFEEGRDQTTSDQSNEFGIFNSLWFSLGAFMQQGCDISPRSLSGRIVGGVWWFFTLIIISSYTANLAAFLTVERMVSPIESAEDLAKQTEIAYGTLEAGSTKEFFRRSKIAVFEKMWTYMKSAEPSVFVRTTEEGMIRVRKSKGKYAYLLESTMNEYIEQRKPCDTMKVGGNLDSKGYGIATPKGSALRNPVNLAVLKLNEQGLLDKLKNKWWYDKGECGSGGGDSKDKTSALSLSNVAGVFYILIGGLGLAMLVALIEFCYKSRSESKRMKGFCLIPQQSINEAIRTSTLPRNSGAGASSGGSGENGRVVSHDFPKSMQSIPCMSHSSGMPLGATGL
T2 sequence (P42261 with tags, fused parts or gaps DEL281-317/N319G/A320G/D322G/C323G): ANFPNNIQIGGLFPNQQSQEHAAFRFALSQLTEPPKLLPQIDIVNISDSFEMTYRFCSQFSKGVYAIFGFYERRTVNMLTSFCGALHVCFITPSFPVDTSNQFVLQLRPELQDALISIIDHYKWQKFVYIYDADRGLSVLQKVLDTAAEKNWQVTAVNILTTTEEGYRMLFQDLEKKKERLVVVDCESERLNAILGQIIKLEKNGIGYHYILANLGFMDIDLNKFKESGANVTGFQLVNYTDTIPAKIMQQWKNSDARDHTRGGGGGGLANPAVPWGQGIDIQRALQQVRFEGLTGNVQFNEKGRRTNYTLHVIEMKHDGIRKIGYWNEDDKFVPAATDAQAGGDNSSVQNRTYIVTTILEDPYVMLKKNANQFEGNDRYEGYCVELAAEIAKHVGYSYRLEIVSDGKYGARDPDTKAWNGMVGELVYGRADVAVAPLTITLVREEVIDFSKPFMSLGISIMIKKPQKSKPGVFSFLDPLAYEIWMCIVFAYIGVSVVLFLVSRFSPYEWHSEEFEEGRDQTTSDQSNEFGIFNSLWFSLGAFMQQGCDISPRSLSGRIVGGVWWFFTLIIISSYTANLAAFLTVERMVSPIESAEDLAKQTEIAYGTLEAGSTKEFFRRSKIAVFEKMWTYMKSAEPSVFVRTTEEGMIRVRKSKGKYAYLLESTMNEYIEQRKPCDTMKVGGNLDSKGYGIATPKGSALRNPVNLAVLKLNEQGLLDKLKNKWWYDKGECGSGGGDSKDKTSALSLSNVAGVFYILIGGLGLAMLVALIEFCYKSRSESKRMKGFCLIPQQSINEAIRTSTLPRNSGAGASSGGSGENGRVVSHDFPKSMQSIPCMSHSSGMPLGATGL

B1: Narp: Neuronal activity regulated pentraxin (SEQ ID NO:2), expressed by transfection, also as C-terminal myc-tagged version (protein, listed as Rattus norvegicus)
chain: MLALLTAGVALAVAAGQAQDNPIPGSRFVCTALPPEAARAGCPLPAMPMQGGALSPEEELRAAVLHWRETVVQQKETLGAQREAIRELTSKLARCEGLAGGKARGTGATGKDTMGDLPRDPGHVVEQLSRSLQTLKDRLESLELQLHTNASNAGLPSDFREVLQRRLGELERQLLRKVAELEDEKSLLHNETSAHRQKTENTLNALLQRVTELERGNSAFKSPDAFKVSLPLRTNYLYGKIKKTLPELYAFTICLWLRSSASPGIGTPFSYAVPGQANEIVLIEWGNNPIELLINDKVAQLPLFVSDGKWHHICITWTTRDGMWEAFQDGEKLGTGENLAPWHPIKPGGVLILGQEQDTVGGRFDATQAFVGELSQFNIWDRVLRAQEIINIANCSTNMPGNIIPWVDNNVDVFGGASKWPVETCEERLLDL
modifications: optional C-terminal myc tag
slowing of HA GluR1 average diffusion rate versus absence of Narp transgene ([1]; 7 D. I. V.): 58% | slowing of HA GluR1 diffusion in the presence of the Narp transgene ([1]; 9 D. I. V.): 44% | HA-GluR1ΔNAR1 average diffusion rate [2]: not significantly altered | myc-Narp clusters in contact with the neuron overlapping with neuronal GluR1 clusters ([3]; 48 hours coculture): 64% | overlapping myc-Narp/GluR1 clusters per 293-neuron contact ([3]; 48 hours coculture): 2.6+/−1.5 | bioactivity of soluble Narp collected from the media (binding to transfected 293 cells) ([3]; soluble secreted form): no bioactivity | large overlapping GluR1/myc-Narp clusters at sites of contact ([4]; 109 contacts between a GluR1 expressing cell and a Narp expressing cell): 1.2+/−0.75 | coclusters of NR1 and NR2A ([4]; n=32 contacts): 0 | clusters of EAAC1 at sites of contact ([4]; n=121): 0.04+/−0.05 | intercellular myc-Narp*GluR1 co-clusters ([4]; untagged Narp co-expressed with GluR1, co-cultured with cells expressing only myc-tagged Narp, n=124): 2.6+/−1.4 | increase in number of synaptic GluR1 clusters compared to either control (cultured spinal neurons; five transfection experiments, p<0.01): 1.9 fold | Synaptic GluR1 Clusters (cultured spinal neurons; [5]): 13.0 +/− 3.8 ** | Synaptophysin Clusters (cultured spinal neurons; [5]): 16.0 +/− 4.6 * | Neuritic Length (cultured spinal neurons; transfected neurons, permeablized myc staining at 100X, 3 experiments): 225 µm | GAD Clusters (cultured spinal neurons; transfected neurons, separate series of 3 experiments): 5.9 +/− 3.9
